Measurements published in US20090123452A1 (TORREY PINES INSTITUTE FOR MOLECULAR STUDIES AND CATALYST …, published 2009).

Assays:
[1] = biological target: u-PA/Ib (phage) (human, UniProt P00749 179-431); experiment: phage display selection: stable complex with His-tagged PAI-1/69 bait captured on Cu-sepharose; increased sensitivity against PAI-1/69
Experimental: (§1) In brief, 5 μl (˜2×10¹² to ˜1×10¹³) u-PA phage, containing an equal representation of u-PA phage from all three u-PA phage libraries (0.2, 0.5 and 0.9% mutagenesis frequency), was mixed with 5 μl bait substrate (from 0.1 to 1.0 μM PAI-1/RRAR or PAI-1/69) and 10 μl 10× indirect buffer pH 7.4 (0.5 M Tris, 1.0 M NaCl, 10 mM EDTA, 0.1% Tween 80) in a total volume of 100 μl (i.e. reaction contained 80 μl H₂O).
(§2) The u-PA phage-PAI-1 inhibitor complexes were captured using CuSO₄ activated sepharose. Pre-activation of the chelating sepharose (200 μl; Pharmacia) was accomplished by treatment with CuSO₄ (100 mM). The CuSO₄ activated sepharose was blocked with 0.5% BSA in PBS buffer for 1 hour at room temperature. 100 μl of BSA blocked sepharose beads was added to 100 μl of the above panning mixture reaction in the presence of 800 μl of binding buffer (0.5 M NaCl, 20 mM Tris, 20 mM immidozole, pH7.4) to capture the His-tagged PAI-1 inhibitor-u-PA phage complexes. The incubation was continued for another 1 hour at room temperature. Next, the panning mixture was centrifuged for 1 min at 2000 rpm and the sepharose beads containing bound u-PA phage-PAI-1 inhibitor complexes were washed with 1 ml of binding buffer to remove unbound phages. The washing step was repeated 5-10 times and the beads containing bound complexes were transferred to new tubes after each wash to avoid any potential “carry over” of non-specific phages.

[2] = biological target: u-PA/IIIa (phage) (human, UniProt P00749 179-431); experiment: as above
Experimental: as §1, §2

[3] = biological target: u-PA/Id (phage) (human, UniProt P00749 179-431); experiment: as above
Experimental: as §1, §2

[4] = biological target: u-PA/IVa (phage) (human, UniProt P00749 179-431); experiment: as above
Experimental: as §1, §2

[5] = biological target: u-PA/IVb (phage) (human, UniProt P00749 179-431); experiment: as above
Experimental: as §1, §2

[6] = biological target: u-PA/IIIb (phage) (human, UniProt P00749 179-431); experiment: as above
Experimental: as §1, §2

[7] = biological target: u-PA/IIc (phage) (human, UniProt P00749 179-431); experiment: as above
Experimental: as §1, §2

[8] = biological target: u-PA/IIIc (phage) (human, UniProt P00749 179-431); experiment: as above
Experimental: as §1, §2

[9] = biological target: u-PA/IIId (phage) (human, UniProt P00749 179-431); experiment: as above
Experimental: as §1, §2

[10] = biological target: u-PA/IIa (phage) (human, UniProt P00749 179-431); experiment: as above
Experimental: as §1, §2

[11] = biological target: u-PA/Ic (phage) (human, UniProt P00749 179-431); experiment: as above
Experimental: as §1, §2

[12] = biological target: u-PA/Ia (phage) (human, UniProt P00749 179-431); experiment: as above
Experimental: as §1, §2

[13] = biological target: u-PA/IIb (phage) (human, UniProt P00749 179-431); experiment: as above
Experimental: as §1, §2

[14] = biological target: T1, u-PA/IIIa (purified two-chain enzyme) (human, UniProt P00749 21-431); experiment: inhibition kinetics, 2nd order rate constant
T1 construct: F30V/K82E/V159A (chymotrypsin numbering); Full-length u-PA from COS-1 cells, made two-chain with plasmin-sepharose; also called u-PA/IIIa (30, 82, 159)
Description: (§3) The indirect chromogenic assay as described in Part D above was used to determine the residual enzyme activity remaining as a function of time.
(§4) The rate constants for inhibition of wild-type or mutant u-PA by PAI-1 were under pseudo-first order conditions for an excess of PAI-1 over u-PA as described previously (see e.g., Holmes et al. (1987) Biochemistry, 26: 5133-5140; Beatty et al. (1980) J. Biol. Chem., 255:3931-3934; Madison et al. (1990) PNAS, 87: 3530-3533; Madison et al. (1993) Methods Enzymol., 223:249-271). […] Following incubation, the mixtures were diluted and the residual enzymatic activity was determined in a standard chromogenic assay as set forth in D above. Data were analyzed by plotting In (residual activity/initial activity) versus time and determining the slope of the resulting straight line. […] rate constants were then derived by dividing the slope by the concentration of the inhibitor in the reaction.
(§5) Following preincubation, the mixtures were quenched with an excess of neutralizing anti-PAI antibodies and residual enzymatic activity was measured in the indirect chromogenic assay. The indirect, chromogenic assays were compared with control reactions containing no PAI-1 or to which PAI-1 was added after preincubation and addition of anti-PAI-1 antibody, plasminogen and Spectrozyme PL to the reaction mixture.

[15] = biological target: T2, u-PA/IIIb (purified two-chain enzyme) (human, UniProt P00749 21-431); experiment: inhibition kinetics, 2nd order rate constant
T2 construct: F30V/K82E/T39A/V159A (chymotrypsin numbering); Full-length u-PA from COS-1 cells, made two-chain with plasmin-sepharose; also called u-PA/IIIb (30, 39, 82, 159)
Description: as §3, §4, §5

[16] = biological target: T3, u-PA/IVa (purified two-chain enzyme) (human, UniProt P00749 21-431); experiment: inhibition kinetics, 2nd order rate constant
T3 construct: F30V/K82E/V159A/E80G/I89V/K187E (chymotrypsin numbering); Full-length u-PA from COS-1 cells, made two-chain with plasmin-sepharose; also called u-PA/IVa (30, 80, 82, 89, 159, 187)
Description: as §3, §4, §5

[17] = biological target: T4, u-PA/Ic (purified two-chain enzyme) (human, UniProt P00749 21-431); experiment: inhibition kinetics, 2nd order rate constant
T4 construct: F30V (chymotrypsin numbering); Full-length u-PA from COS-1 cells, made two-chain with plasmin-sepharose; also called u-PA/Ic (30)
Description: as §3, §4, §5

[18] = biological target: T5, u-PA/IVb (purified two-chain enzyme) (human, UniProt P00749 21-431); experiment: inhibition kinetics, 2nd order rate constant
T5 construct: F30V/K82E/V159A/E80G/E84K/I89V/K187E (chymotrypsin numbering); Full-length u-PA from COS-1 cells, made two-chain with plasmin-sepharose; also called u-PA/IVb (30, 80, 82, 84, 89, 159, 187)
Description: as §3, §4, §5

[19] = biological target: T6, u-PA/IIb (purified two-chain enzyme) (human, UniProt P00749 21-431); experiment: inhibition kinetics, 2nd order rate constant
T6 construct: F30V/K82E (chymotrypsin numbering); Full-length u-PA from COS-1 cells, made two-chain with plasmin-sepharose; also called u-PA/IIb (30, 82)
Description: as §3, §4, §5

Measured: binding result

B1: mutant PAI-1/69 inhibitor (other)
chain: VHHPPSYVAHLASDFGVRVFQQVAQASKDRNVVFSPYGVASVLAMLQLTTGGETQQQIQAAMGFKIDDKGMAPALRHLYKELMGPWNKDEISTTDAIFVQRDLKLVQGFMPHFFRLFRSTVKQVDFSEVERARFIINDWVKTHTKGMISNLLGKGAVDQLTRLVLVNALYFNGQWKTPFPDSSTHRRLFHKSDGSTVSVPMMAQTNKFNYTEFTTPDGHYYDILELPYHGDTLSMFIAAPYEKEVPLSALTNILSAQLISHWKGNMTRLPRLLVLPKFSLETEVDLRKPLENLGMTDMFRQFQADFTSLSDQEPLHVAQALQKVKIEVNESGTVASSSTAVIPFGRSAPEEIIMDRPFLFVVRHNPTGTVLFMGQVMEP
notes: not shown: N-terminal poly histidine residues from the pPAIST7HS vector
binds: all assays above
